The Ki is the equilibrium dissociation constant of an inhibitor or competing ligand from its target.

The values that follow come from patent US10006080B2, “High-selectivity contact activation inhibitor based on infestin-4” (OBSCHESTVO S OGRANICHENNOY OTVETSTVENNOSTYU …, priority 2013, dated 2018).

Experiment [1] addresses T1, fXIa (Homo sapiens, UniProt P03951).
T1 construct: factor XI into its active form, factor XIa (fXIa)
Briefly: Chromogenic test of protease inhibition in buffer, fXIa (substrate S-2366). It is filed as biochemical. The following applies: buffer solution, summary of Table 2. The protocol: In order to assess selectivity of the fXIIa inhibition by the polypeptide comprising the sequence of the infestin-4 mutant MutB, its inhibitory activity in buffer solution against the purified coagulation factors was determined. The polypeptide's activity was compared with the known fXIIa inhibitors: CTI, infestin-4, infestin-4-based mutant Mut15, LCTI-III. […] The standard deviation amounted to about 50% of the average value; each value was measured by performing 2-3 repeats.
(§1) To determine the inhibition activity of such proteins as MutB, CTI, Inf4, Mut15, and LCTI-III as related to different coagulation proteases in a buffer, the chromogenic test was used: the mixture of protease and inhibitor was incubated in the wells of the plate for 15 minutes at 37° C., after which the chromogenic substrate solution was added to the mixture, and the protease activity was measured as the rate of chromogenic product formation at 37° C.
(§2) Chromogenic substrates included a p-nitroanilide group cleaved by the corresponding proteases. After cleavage of the p-nitroanilide group from the substrate molecule, the group absorption spectrum changes, and the change of concentration of such product within time can be detected at the light wavelength of 405 nm using a plate spectrophotometer. To build a dependence curve of the protease activity from the inhibitor concentration, different inhibitor concentrations were added into several samples with the same protease concentration. After that, the inhibitor concentration able to decrease the protease activity by 50% (IC50) was determined. The inhibition constant Ki was calculated using the Cheng-Prusoff equation (Ki=IC50/(1+S/KM)), where S is the initial substrate concentration, KM is the Michaelis-Menten constant of the substrate to the protease.
Native infestin-4 and its mutants MutB and Mut15 used here were fusion proteins with thioredoxin I E. coli containing polyhisticline clusters. […]

For experiment [2], the system named is contact-activated coagulation. Briefly: APTT test in platelet free plasma of a healthy donor (kaolin-cephalin activation). It is filed as biochemical, human. The following applies: 10 μM inhibitor in PFP; 45 sec without inhibitor. On the procedure:
The assessment of activity of the polypeptide comprising the sequence of an infestin-4 mutant MutB by its inhibition of the contact-activated coagulation shall be considered further with a reference to FIG. 1. Native infestin-4 and mutants MutB and Mut15 were added into 3 separate samples of platelet free plasma (PFP) of a healthy donor, with subsequent measuring time of contact-activated clotting in the APTT test.
Blood plasma from healthy donors was processed according to standard protocols of blood collection for coagulation assays (Collection, Transport, and Processing of Blood Specimens for Testing Plasma-Based Coagulation Assays and Molecular Hemostasis Assays; Approved Guideline Fifth Edition by Clinical and Laboratory Standards Institute (CLSI) H21-A5 Vol. 28 No. 5). 0.38% sodium citrate was added into blood to block the calcium ions.
The APTT test was administered using the reagent kits “Coagulo-test” (Scientific-production association Renam, Moscow, Russia) and different concentrations of the following contact activation inhibitors: native infestin-4, MutB, and Mut15. To do that, 50 microliters of blood plasma from a healthy donor were mixed with 5.6 microliters of a 10× solution of different inhibitor concentrations and incubated for 15 minutes at 37° C. Then, according to the “Coagulo-test” manual, 25 microliters of the mixture were transferred into the cuvette of the coagulometer Helena-C2, with addition of 25 microliters of kaolin-cephalin mixture activating fXII in blood plasma. After incubation at 37° C. for 3 minutes, 25 microliters of the calcium chloride solution in the initial concentration of 25 mM was added, and the time of fibrin clot formation in the coagulometer cuvette was determined photometrically.
APTT dependences on concentrations of native infestin-4, MutB and Mut15 obtained in the same way as in Example 1, are shown on FIG. 1.

In experiment [3] the target is fXa (Homo sapiens, UniProt P00742). The following applies: Campos et al. 2004, FEBS Lett. 577:512-516; read-out: inhibition constant Ki against fXa; cited from earlier work.
Chain of fXa (Homo sapiens, UniProt P00742) (P00742 235-488 limits assumed): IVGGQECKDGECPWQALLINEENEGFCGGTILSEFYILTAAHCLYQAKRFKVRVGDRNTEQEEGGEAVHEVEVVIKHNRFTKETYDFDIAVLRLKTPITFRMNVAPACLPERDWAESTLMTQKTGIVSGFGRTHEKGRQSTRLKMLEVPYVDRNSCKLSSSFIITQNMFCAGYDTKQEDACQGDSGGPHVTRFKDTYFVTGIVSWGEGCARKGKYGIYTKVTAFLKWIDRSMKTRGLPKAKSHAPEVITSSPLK
Chain of fXa (Homo sapiens, UniProt P00742) (P00742 41-179 partner limits assumed): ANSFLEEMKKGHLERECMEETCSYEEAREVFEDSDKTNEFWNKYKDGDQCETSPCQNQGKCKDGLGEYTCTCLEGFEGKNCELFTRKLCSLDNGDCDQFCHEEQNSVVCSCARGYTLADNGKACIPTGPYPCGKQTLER
The subject of experiment [4] is fXIIa. To be noted: without affecting hemostasis parameters; cited from earlier work.
The target of experiment [5] is T2, factor XIIa (UniProt P00748 20-615, limits assumed).
T2 construct: also called fXIIa
T2 sequence (looked up): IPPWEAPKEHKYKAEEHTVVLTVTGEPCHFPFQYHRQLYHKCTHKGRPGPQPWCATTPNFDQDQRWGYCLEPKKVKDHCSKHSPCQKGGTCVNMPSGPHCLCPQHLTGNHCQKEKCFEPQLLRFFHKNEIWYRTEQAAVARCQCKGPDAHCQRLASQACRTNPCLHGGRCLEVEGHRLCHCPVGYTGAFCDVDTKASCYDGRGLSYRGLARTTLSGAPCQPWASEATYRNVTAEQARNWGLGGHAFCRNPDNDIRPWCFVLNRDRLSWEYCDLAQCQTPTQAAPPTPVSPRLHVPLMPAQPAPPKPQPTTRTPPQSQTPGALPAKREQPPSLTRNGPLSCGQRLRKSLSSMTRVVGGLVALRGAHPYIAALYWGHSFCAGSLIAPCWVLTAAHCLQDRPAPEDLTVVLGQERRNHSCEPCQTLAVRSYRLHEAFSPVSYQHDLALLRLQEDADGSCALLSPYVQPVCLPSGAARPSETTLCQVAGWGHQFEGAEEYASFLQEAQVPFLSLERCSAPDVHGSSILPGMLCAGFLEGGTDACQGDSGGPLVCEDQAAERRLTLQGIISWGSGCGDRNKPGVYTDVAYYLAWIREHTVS
Briefly: chromogenic test (S-2302), IC50 converted by Cheng-Prusoff. The protocol:
as §1, §2

Experiment [6] deals with T3, factor XIa (UniProt P03951 19-625).
T3 construct: also called fXIa
Briefly: chromogenic test (S-2366), IC50 converted by Cheng-Prusoff. On the procedure: as §1, §2

Experiment [7] concerns the target T4, fXa (UniProt P00742 41-179; P00742 235-488, limits assumed).
T4 construct: also called factor Xa
Briefly: chromogenic test (S-2765), IC50 converted by Cheng-Prusoff. On the procedure: as §1, §2

Substitutions are numbered along the chain they refer to. No end group written: not given here.

T4 sequence (P00742 41-179 limits assumed, form in doubt, chain 1 of 2): as the sequence (P00742 41-179 partner limits assumed) above
T4 sequence (P00742 235-488 limits assumed, form in doubt, chain 2 of 2): as the sequence (P00742 235-488 limits assumed) above

Consider “Inf4: domain 4 of the protein infestin from the midgut of Triatoma infestans, Kazal-type fXIIa inhibitor; PDB 2ERW (EVRNPCACFRNYVPVCGSDGKTYGNPCMLNCAAQTKVPGLKLVHEGRCQRSNVEQF; left off: large carriers; small tags and cut ends) [reference compound]”, for which the “inhibition of fXIa (in words)” value in experiment [1] is on record as “do not inhibit”. For the same molecule, the APTT in experiment [2] was found to be 120 s. In addition, the Ki in experiment [3] is 53 nM. In addition, the “effect in the thrombosis model in vivo” value in experiment [4] was “prevents vascular occlusion”.

With RICPRILMECSSDSDCLAECICLENGFCG (Chemically synthesised) [Luffa cylindrica trypsin inhibitor, LCTI-III], the figures for the Ki in experiment [5] and in experiment [6] were 15 nM and 30000 nM, respectively.

B1: native infestin-4, fusion protein with thioredoxin I E. coli containing polyhistidine clusters (other)
chain: EVRNPCACFRNYVPVCGSDGKTYGNPCMLNCAAQTKVPGLKLVHEGRCQRSNVEQF
notes: It says MutB differs from it at positions 9, 12 and 14 only; also called Inf4; not shown: thioredoxin I of E. coli, fusion partner; polyhistidine clusters
With B1, the Ki in experiment [7] was 2000 nM; in experiment [5], 1 nM.

B2: infestin-4 mutant MutB, fusion protein with thioredoxin I E. coli containing polyhistidine clusters (other, not shown: large carriers; small tags and cut ends)
chain: B1 chain with F9T, Y12F, P14A
modifications: cysteine pairing not given here; also: fusion with thioredoxin I and polyhistidine clusters, not given here
B2 showed a Ki in experiment [5] of 1 nM.
